Experiments:
Experiment in all cases: pull-down
Settings in all cases: both partners purified
[1] = target: T1, SARS-CoV-2 Nucleocapsid (N) protein, full-length (SARS-CoV-2, reference Wuhan-Hu-1 …, UniProt P0DTC9)
T1 construct: also called full-length N; FL

[2] = target: T2, SARS-CoV-2 N protein RNA-binding domain (residues 49-174) (SARS-CoV-2, UniProt P0DTC9)
T2 construct: also called N^49-174; N^RBD

[3] = target: T3, SARS-CoV-2 N protein C-terminal intrinsically disordered region (residues 365-419) (SARS-CoV-2, reference Wuhan-Hu-1 …, UniProt P0DTC9)
T3 construct: also called C-IDR

B1: single-domain antibody sdAb-B6 (VHH)
VHH: EVQLQASGGGLVQAGDSLRLSCVAVSGRTISTFAMGWFRQAPGKEREFVATINWSGSSARYADPVEGRFTISRDDAKNTVYLEMSSLKPGDSAVYYCASGRYLGGITSYSQGDFAPWGQGTQVTVSS
notes: not shown: His6, C-terminal, kept
B1: binds [1].

B2: single-domain antibody sdAb-C2 (VHH)
VHH: EVQLQASGGGLVRPGGSLRLSCAASGFTFSSYAMMWVRQAPGKGLEWVSAINGGGGSTSYADSVKGRFTISRDNAKNTLYLQMNSLKPEDTAVYYCAKYQAAVHQEKEDYWGQGTQVTVSS
notes: as for B1
B2: binds [2]; binds [1].

B3: single-domain antibody sdAb-E2 (VHH)
VHH: EVQLQASGGGLVQAGGSLRLSCAASGRTDSTQHMAWFRQAPGKEREFVTAIQWRGGGTSYTDSVKGRFTISRDNAKNTVYLEMNSLKPEDTAVYYCATNTRWTYFSPTVPDRYDYWGQGTQVTVSS
notes: as for B1
B3: binds [1].

B4: single-domain antibody sdAb-N3 (VHH)
VHH: KVKLQQSGGGLVQTGGSLRLSCAPSGRTFSVNAMGWYRQAPGKQREPVALISTGGSTNYADSVKGRFTISRDNVKNTVYLQMNTLKPEDTAVYYCYTERWKPRGIERDWGQGTQVTVSS
notes: as for B1
B4: binds [1]; binds [3].

— PMC8351461 (Frontiers in Immunology, 2021)
